# Source: US8889621B2, “Inhibiting binding of FGF23 to the binary FGFR-Klotho complex for the treatment of hypophosphatemia” (New York University, priority 2009, dated 2014)
# T1: binary FGFR1c-Klotho complex (UniProt O35082+P11362)
# T1 construct: The ectodomain of murine Klotho (A35 to K982) was purified from culture media; FLAG (C); made in house; host or cells: E. coli (FGFR1c, FGF23); HEK293 (Klotho ectodomain)
# T1 sequence (P11362 142-365): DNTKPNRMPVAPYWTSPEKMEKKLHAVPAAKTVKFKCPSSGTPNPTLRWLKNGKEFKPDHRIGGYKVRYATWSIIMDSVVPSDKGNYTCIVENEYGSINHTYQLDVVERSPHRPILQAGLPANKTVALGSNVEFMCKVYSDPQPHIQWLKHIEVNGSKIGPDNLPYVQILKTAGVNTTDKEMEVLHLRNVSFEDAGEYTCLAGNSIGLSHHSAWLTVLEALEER
# T1 sequence (O35082 35-982): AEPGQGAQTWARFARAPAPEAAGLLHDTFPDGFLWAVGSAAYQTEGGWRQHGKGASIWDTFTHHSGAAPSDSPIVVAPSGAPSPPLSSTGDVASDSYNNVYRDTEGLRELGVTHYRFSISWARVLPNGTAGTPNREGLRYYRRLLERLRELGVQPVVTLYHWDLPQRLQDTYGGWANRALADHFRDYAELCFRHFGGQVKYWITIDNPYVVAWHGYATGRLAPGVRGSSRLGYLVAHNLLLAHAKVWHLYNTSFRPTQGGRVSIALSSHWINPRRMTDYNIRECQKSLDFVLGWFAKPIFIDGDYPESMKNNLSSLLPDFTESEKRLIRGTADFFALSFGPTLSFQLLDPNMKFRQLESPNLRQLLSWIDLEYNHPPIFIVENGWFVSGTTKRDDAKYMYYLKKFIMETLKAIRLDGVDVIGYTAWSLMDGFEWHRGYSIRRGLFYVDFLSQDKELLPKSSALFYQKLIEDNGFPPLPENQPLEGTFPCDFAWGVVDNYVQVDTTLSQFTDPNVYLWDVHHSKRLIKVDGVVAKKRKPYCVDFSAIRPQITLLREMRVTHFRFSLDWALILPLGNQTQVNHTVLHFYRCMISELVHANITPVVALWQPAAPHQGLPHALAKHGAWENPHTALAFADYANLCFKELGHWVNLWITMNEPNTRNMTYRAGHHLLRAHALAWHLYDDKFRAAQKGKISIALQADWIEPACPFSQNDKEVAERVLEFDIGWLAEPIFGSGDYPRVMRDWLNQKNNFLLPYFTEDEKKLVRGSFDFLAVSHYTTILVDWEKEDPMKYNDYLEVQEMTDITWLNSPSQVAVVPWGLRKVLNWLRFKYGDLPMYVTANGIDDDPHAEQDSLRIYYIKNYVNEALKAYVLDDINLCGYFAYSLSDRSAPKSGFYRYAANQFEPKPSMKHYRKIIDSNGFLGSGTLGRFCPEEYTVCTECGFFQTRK
# Target: T1, binary FGFR1c-Klotho complex
# Test: Reverse SPR competition: FGFR1c-Klotho binding to immobilized FGF23^180-251
# Set-up: species or system human FGFR1c, murine Klotho
# Conditions: reverse SPR format
# Procedure: A variety of interaction or binding assays can be used to determine that an agent specifically binds the binary FGFR-Klotho complex, such as the SPR interaction analysis described below. One aspect of the present invention utilizes SPR analysis of FGF23 protein/peptide binding to the binary FGFR-Klotho complex. The SPR analysis involved FGF23 protein/peptide immobilization by amine coupling on flow channels of a chip. Proteins were injected over the chip at a flow rate of 50 μl min^−1, and at the end of each protein injection (180 s), HBS-EP buffer (10 mM HEPES-NaOH, pH 7.4, 150 mM NaCl, 3 mM EDTA, 0.005% (v/v) polysorbate 20; 50 μl min^−1) was flowed over the chip to monitor dissociation for 180 s. The chip surface was then regenerated by injecting 50 μl of 2.0 M NaCl in 10 mM sodium acetate, pH 4.5. […] For each protein injection over a FGF23 protein/peptide chip, the nonspecific responses from the FHF1B control flow channel were subtracted from the responses recorded for the flow channel onto which FGF23 protein/peptide was immobilized. […] As a control, competition of FGF23 C-terminal tail peptide in solution with immobilized FGF23 C-terminal tail peptide for binding to the binary FGFR1c-Klotho complex was analyzed. […]
molecule,measurement,value
"FGF23^28-251: human FGF23 (A28 to I251), bioactive full-length ligand expressed in E. coli (protein, listed as Homo sapiens) ASPLLGSSWGGLIHLYTATARNSYHLQIHKNGHVDGAPHQTIYSALMIRSEDAGFVVITGVMSRRYLCMDFRGNIFGSHYFDPENCRFQHQTLENGYDVYHSPQYHFLVSLGRAKRAFLPGMNPPPYSQFLSRRNEIPLIHFNTPIPRRHTRSAEDDSERDPLNVLKPRARMTPAPASCSQELPSAEDNSPMASDPLGVVRGGRVNTHAGGTGPEGCRPFAKFI",inhibition of FGFR1c-Klotho binding to immobilized FGF23^180-251,inhibition
"FGF23^180-251: 72-amino acid C-terminal tail of human FGF23 (S180 to I251), expressed in E. coli (protein, listed as Homo sapiens) SAEDDSERDPLNVLKPRARMTPAPASCSQELPSAEDNSPMASDPLGVVRGGRVNTHAGGTGPEGCRPFAKFI",inhibition of FGFR1c-Klotho binding to immobilized FGF23^180-251,inhibition
